We go through 20 molecules from patent US20040018204A1.

In the first assay the target is mouse B6 MHC class I antigens (H-2b: D^b or K^b) on the surface of RMA-S cells (mouse). Briefly: RMA-S class I stabilisation, peptide 25 ug/ml, flow cytometry with FITC anti-D^b or anti-K^b, MFI against medium alone. In general terms: Flow cytometry measures light scatter and fluorescence of single cells or particles in a stream.
QMTSQLECM [WT1 peptide p228-236 (…)] registered a Binding Affinity to Mouse MHC Class I (% increase of class I on RMA-S cells) of 1.2%.

In turn, SCLESQPAI [WT1 peptide p136-144 human (…)] returned a Binding Affinity to Mouse MHC Class I (% increase of class I on RMA-S cells) of 52%. In turn, YSSDNLYQM [WT1 peptide p221-229 (…)] gave a Binding Affinity to Mouse MHC Class I (% increase of class I on RMA-S cells) of 0.8%. The molecule ALLPAVPSL [WT1 peptide p10-18 human (…)] showed a Binding Affinity to Mouse MHC Class I (% increase of class I on RMA-S cells) of 2.2%. NQMNLGATL [WT1 peptide p239-247 (…)] had a Binding Affinity to Mouse MHC Class I (% increase of class I on RMA-S cells) of 1%. Still for that read-out and setting: for CMTWNQMNL [WT1 peptide p235-243 (…)] the value was 33.6%; for GCNKRYFKL [WT1 peptide p329-337 (…)], 1.2%. NLYQMTSQL [WT1 peptide p225-233 (…)]: the Binding Affinity to Mouse MHC Class I (% increase of class I on RMA-S cells) was 5.8%.

For a further assay the target is unchanged. Briefly: binding of 9mer peptides within p117-139 to mouse B6 (H-2b) class I antigens; RMA-S assay as for Table XLVII.
As for PSQASSGQA [WT1 peptide P117-125 (…)], the Binding Affinity to Mouse MHC Class I worked out at 2%. Same read-out and setting: for ARMFPNAPY [WT1 peptide P125-133 (…)] the value was 1%. In turn, ASSGQARMF [WT1 peptide P120-128 (…)] showed a Binding Affinity to Mouse MHC Class I of 1%. On to APYLPSCLE [WT1 peptide P131-139 (…)], for which the Binding Affinity to Mouse MHC Class I came to 1%. QASSGQARM [WT1 peptide P119-127 (…)] registered a Binding Affinity to Mouse MHC Class I of 2%. The same measure, in the same setting: for SSGQARMFP [WT1 peptide P121-129 (…)] the value was 1%. The molecule SQASSGQAR [WT1 peptide P118-126 (…)] displayed a Binding Affinity to Mouse MHC Class I of 2%.

As for PNAPYLPSC [WT1 peptide P129-137 (…)], the Binding Affinity to Mouse MHC Class I is 1%. As to FPNAPYLPS [WT1 peptide P128-136 (…)], the Binding Affinity to Mouse MHC Class I stood at 1%. On the same count and under the same terms, in the case of NAPYLPSCL [WT1 peptide P130-138 (…)] it was 79%; in that of QARMFPNAP [WT1 peptide P124-132 (…)], 1%; in that of MFPNAPYLP [WT1 peptide P127-135 (…)], 2%.
